In paper PMC9352680, “A comprehensive thermodynamic model for RNA binding by the Saccharomyces cerevisiae Pumilio protein PUF4”:

Molecular target: T1, PUF4 RNA-binding domain (Saccharomyces cerevisiae, UniProt P25339 537-888)
T1 sequence: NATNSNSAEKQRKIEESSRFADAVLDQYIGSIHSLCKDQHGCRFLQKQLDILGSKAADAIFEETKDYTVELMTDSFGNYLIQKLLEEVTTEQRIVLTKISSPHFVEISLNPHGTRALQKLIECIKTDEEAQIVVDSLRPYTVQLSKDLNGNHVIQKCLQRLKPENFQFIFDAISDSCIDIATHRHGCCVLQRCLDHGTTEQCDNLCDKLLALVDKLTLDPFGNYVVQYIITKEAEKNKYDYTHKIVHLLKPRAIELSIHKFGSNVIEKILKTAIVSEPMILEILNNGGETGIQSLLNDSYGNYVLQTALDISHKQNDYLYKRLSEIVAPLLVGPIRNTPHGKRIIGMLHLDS
Assay: Mg; RNA-MaP; 20 mM Na-HEPES pH 7.4, 30 mM KOAc, 0.75 mM MgCl2, 0.1% Tween-20, 5% glycerol, 0.1 mg/mL BSA, 2 mM DTT; 25 C; 0.0125-409.6 nM protein
Conditions: tags: N-His6-TEV cleaved; C-SNAP kept, Cy3B-labelled; label: tethered on chip by stalled RNA polymerase

Point of comparison: UCUCUUUGUACGCUUUCUCUU (ssRNA) [Ic_S1_P4E.1_K4.1_C4.1_H4.1_A4.1_[T5C]_[A6G]_[T7C]_F4.1_[A9T]_T4.1], Kd 51 nM. Against it:
- UCUCUUUGUACGAUGUCUCUU (ssRNA) [Ic_S1_P4E.1_K4.1_C4.1_H4.1_A4.1_[T5C]_[A6G]_[T7A]_F4.1_[A9G]_T4.1] — 2.1-fold lower, 23.8 nM
- UCUCUUUGUAGUCAUUCUCUU (ssRNA) [Ic_S1_P4E.1_K4.1_C4.1_H4.1_A4.1_[T5G]_[A6T]_[T7C]_F4.1_[T8A]_[A9T]_T4.1] — 19-fold higher, 971 nM
- UCUCUUUGUACGGCAUCUCUU (ssRNA) [Ic_S1_P4E.1_K4.1_C4.1_H4.1_A4.1_[T5C]_[A6G]_[T7G]_F4.1_[T8C]_T4.1] — 12-fold higher, 625 nM
- UCUCUUUGUAGUUUGUCUCUU (ssRNA) [Ic_S1_P4E.1_K4.1_C4.1_H4.1_A4.1_[T5G]_[A6T]_F4.1_[A9G]_T4.1] — 5.6-fold higher, 287 nM
- UCUCUUUGUACGCAGUCUCUU (ssRNA) [Ic_S1_P4E.1_K4.1_C4.1_H4.1_A4.1_[T5C]_[A6G]_[T7C]_F4.1_[T8A]_[A9G]_T4.1] — 22-fold higher, 1140 nM
- UCUCUUUGUAGUGUAUCUCUU (ssRNA) [Ic_S1_P4E.1_K4.1_C4.1_H4.1_A4.1_[T5G]_[A6T]_[T7G]_F4.1_T4.1] — within 1.5-fold, 52.3 nM
- UCUCUUUGUAGUCUUUCUCUU (ssRNA) [Ic_S1_P4E.1_K4.1_C4.1_H4.1_A4.1_[T5G]_[A6T]_[T7C]_F4.1_[A9T]_T4.1] — 7.6-fold higher, 389 nM
- UCUCUUUGUAGUAACUCUCUU (ssRNA) [Ic_S1_P4E.1_K4.1_C4.1_H4.1_A4.1_[T5G]_[A6T]_[T7A]_F4.1_[T8A]_[A9C]_T4.1] — higher, > 2300 nM
- UCUCUUUGUAGUAUUUCUCUU (ssRNA) [Ic_S1_P4E.1_K4.1_C4.1_H4.1_A4.1_[T5G]_[A6T]_[T7A]_F4.1_[A9T]_T4.1] — 5.8-fold higher, 297 nM
- UCUCUUUGUACGCGUUCUCUU (ssRNA) [Ic_S1_P4E.1_K4.1_C4.1_H4.1_A4.1_[T5C]_[A6G]_[T7C]_F4.1_[T8G]_[A9T]_T4.1] — 28-fold higher, 1440 nM
- UCUCUUUGUACGGUCUCUCUU (ssRNA) [Ic_S1_P4E.1_K4.1_C4.1_H4.1_A4.1_[T5C]_[A6G]_[T7G]_F4.1_[A9C]_T4.1] — 29-fold higher, 1490 nM
- UCUCUUUGUAGUCUCUCUCUU (ssRNA) [Ic_S1_P4E.1_K4.1_C4.1_H4.1_A4.1_[T5G]_[A6T]_[T7C]_F4.1_[A9C]_T4.1] — 13-fold higher, 658 nM
- UCUCUUUGUACGGCGUCUCUU (ssRNA) [Ic_S1_P4E.1_K4.1_C4.1_H4.1_A4.1_[T5C]_[A6G]_[T7G]_F4.1_[T8C]_[A9G]_T4.1] — higher, > 2300 nM
- UCUCUUUGUACGCAUUCUCUU (ssRNA) [Ic_S1_P4E.1_K4.1_C4.1_H4.1_A4.1_[T5C]_[A6G]_[T7C]_F4.1_[T8A]_[A9T]_T4.1] — 8.3-fold higher, 425 nM
- UCUCUUUGUAGUGCUUCUCUU (ssRNA) [Ic_S1_P4E.1_K4.1_C4.1_H4.1_A4.1_[T5G]_[A6T]_[T7G]_F4.1_[T8C]_[A9T]_T4.1] — higher, > 2300 nM
- UCUCUUUGUAGUGCCUCUCUU (ssRNA) [Ic_S1_P4E.1_K4.1_C4.1_H4.1_A4.1_[T5G]_[A6T]_[T7G]_F4.1_[T8C]_[A9C]_T4.1] — higher, > 2300 nM
- UCUCUUUGUAGUCACUCUCUU (ssRNA) [Ic_S1_P4E.1_K4.1_C4.1_H4.1_A4.1_[T5G]_[A6T]_[T7C]_F4.1_[T8A]_[A9C]_T4.1] — 35-fold higher, 1760 nM
- UCUCUUUGUAGUCUAUCUCUU (ssRNA) [Ic_S1_P4E.1_K4.1_C4.1_H4.1_A4.1_[T5G]_[A6T]_[T7C]_F4.1_T4.1] — 2.4-fold lower, 21.1 nM
- UCUCUUUCUAUACAUCUCUU (ssRNA) [Ib_S1_P3E.1_K3.1_C3.1_H3.1_[G2C]_A3.1_F3.1_[T7C]_T3.1] — higher, > 2300 nM
- UCUCUUUGUAGUCGGUCUCUU (ssRNA) [Ic_S1_P4E.1_K4.1_C4.1_H4.1_A4.1_[T5G]_[A6T]_[T7C]_F4.1_[T8G]_[A9G]_T4.1] — higher, > 2300 nM
- UCUCUUUGUAGUUUCUCUCUU (ssRNA) [Ic_S1_P4E.1_K4.1_C4.1_H4.1_A4.1_[T5G]_[A6T]_F4.1_[A9C]_T4.1] — 7.2-fold higher, 365 nM
- UCUCUUUGUAGUUGUUCUCUU (ssRNA) [Ic_S1_P4E.1_K4.1_C4.1_H4.1_A4.1_[T5G]_[A6T]_F4.1_[T8G]_[A9T]_T4.1] — 16-fold higher, 802 nM
- UCUCUUUGUACGCGAUCUCUU (ssRNA) [Ic_S1_P4E.1_K4.1_C4.1_H4.1_A4.1_[T5C]_[A6G]_[T7C]_F4.1_[T8G]_T4.1] — 14-fold higher, 727 nM
- UCUCUUUGUACGCCUUCUCUU (ssRNA) [Ic_S1_P4E.1_K4.1_C4.1_H4.1_A4.1_[T5C]_[A6G]_[T7C]_F4.1_[T8C]_[A9T]_T4.1] — 15-fold higher, 777 nM
- UCUCUUUGUACGAACUCUCUU (ssRNA) [Ic_S1_P4E.1_K4.1_C4.1_H4.1_A4.1_[T5C]_[A6G]_[T7A]_F4.1_[T8A]_[A9C]_T4.1] — 19-fold higher, 985 nM
- UCUCUUUGUACGGUUUCUCUU (ssRNA) [Ic_S1_P4E.1_K4.1_C4.1_H4.1_A4.1_[T5C]_[A6G]_[T7G]_F4.1_[A9T]_T4.1] — 7.1-fold higher, 360 nM
- UCUCUUUGUAGUACAUCUCUU (ssRNA) [Ic_S1_P4E.1_K4.1_C4.1_H4.1_A4.1_[T5G]_[A6T]_[T7A]_F4.1_[T8C]_T4.1] — 34-fold higher, 1720 nM
- UCUCUUUGUAGUAUCUCUCUU (ssRNA) [Ic_S1_P4E.1_K4.1_C4.1_H4.1_A4.1_[T5G]_[A6T]_[T7A]_F4.1_[A9C]_T4.1] — 12-fold higher, 590 nM
- UCUCUUUGUAGUUCAUCUCUU (ssRNA) [Ic_S1_P4E.1_K4.1_C4.1_H4.1_A4.1_[T5G]_[A6T]_F4.1_[T8C]_T4.1] — 31-fold higher, 1570 nM
- UCUCUUUGUACGCAAUCUCUU (ssRNA) [Ic_S1_P4E.1_K4.1_C4.1_H4.1_A4.1_[T5C]_[A6G]_[T7C]_F4.1_[T8A]_T4.1] — 2.7-fold higher, 139 nM
- UCUCUUUGUACGCGCUCUCUU (ssRNA) [Ic_S1_P4E.1_K4.1_C4.1_H4.1_A4.1_[T5C]_[A6G]_[T7C]_F4.1_[T8G]_[A9C]_T4.1] — 22-fold higher, 1130 nM
- UCUCUUUGUAGUUUUUCUCUU (ssRNA) [Ic_S1_P4E.1_K4.1_C4.1_H4.1_A4.1_[T5G]_[A6T]_F4.1_[A9T]_T4.1] — 2.3-fold higher, 118 nM
